Source: article PMC6858323, “Multiple conformations facilitate PilT function in the type IV pilus” (Nature Communications, 2019)

Target: the molecule itself
Assay: cryoEM 2D class averages; PilT^Pa 0.75 mg/ml without added nucleotide, 4 °C; top-view 2D class averages compared with projections of PilT crystal structures

| Protein | stoichiometry N |
| --- | --- |
| PilT from Pseudomonas aeruginosa (PilT^Pa), purified (enzyme, PilT, Pseudomonas aeruginosa, expressed from pET28a:PilT^Pa; the cloning of this plasmid is not described; also called apo-PilT^Pa; wild-type PilT^Pa; source: E. coli BL21-CodonPlus, purified (Ni-NTA, Superdex 200 SEC)) MDITELLAFSAKQGASDLHLSAGLPPMIRVDGDVRRINLPPLEHKQVHALIYDIMNDKQRKDFEEFLETDFSFEVPGVARFRVNAFNQNRGAGAVFRTIPSKVLTMEELGMGEVFKRVSDVPRGLVLVTGPTGSGKSTTLAAMLDYLNNTKYHHILTIEDPIEFVHESKKCLVNQREVHRDTLGFSEALRSALREDPDIILVGEMRDLETIRLALTAAETGHLVFGTLHTTSAAKTIDRVVDVFPAEEKAMVRSMLSESLQSVISQTLIKKIGGGRVAAHEIMIGTPAIRNLIREDKVAQMYSAIQTGGSLGMQTLDMCLKGLVAKGLISRENAREKAKIPENF | 6 |
| K58A PilT from Pseudomonas aeruginosa, purified (enzyme, PilT, Pseudomonas aeruginosa, with K58A; the expression construct of the purified mutant is not described; also called K58A PilT^Pa; K58A mutant; source: purified) MDITELLAFSAKQGASDLHLSAGLPPMIRVDGDVRRINLPPLEHKQVHALIYDIMNDAQRKDFEEFLETDFSFEVPGVARFRVNAFNQNRGAGAVFRTIPSKVLTMEELGMGEVFKRVSDVPRGLVLVTGPTGSGKSTTLAAMLDYLNNTKYHHILTIEDPIEFVHESKKCLVNQREVHRDTLGFSEALRSALREDPDIILVGEMRDLETIRLALTAAETGHLVFGTLHTTSAAKTIDRVVDVFPAEEKAMVRSMLSESLQSVISQTLIKKIGGGRVAAHEIMIGTPAIRNLIREDKVAQMYSAIQTGGSLGMQTLDMCLKGLVAKGLISRENAREKAKIPENF | 6 |
